These results are taken from patent publication US7030099B2, “Tumor specific promoters of the midkine gene that allow for selective expression in P53-inactivated cells” (Research Corporation Technologies, Inc., priority 2000, dated 2006).

One series deals with lung cancer cells QG-56. The series is described as follows: In vitro sensitivity to GCV of MK0.6-TK-introduced cells. It counts as cell-based, human. The method, then: (§1) (2) Then, the tumor-specificity of this MK0.6 promoter was examined using the human tumor cells and normal fibroblasts. As described above, MK0.6-TK was introduced into various types of cells using lipofectin, and they were cultured in the presence of 400 μg/ml of G418 for ten days to obtain cells in which the MK0.6-TK gene was expressed. Thus, these gene-introduced cells were plated at 500 cells/well of 96-well culture plates, and were cultured in the presence of various concentrations of GCV for seven days. The survival rate of the cells was examined using the Cell Counting Kit-8. The results obtained are shown in FIG. 3A, FIG. 3B and FIG. 3C.

The conditions of series [1]: as currently used for treatment of cytomegalovirus infections; cited from earlier work.
In series [2] the test system is lung cancer cells QG-56, neuroblastoma NGP. Nature of the series: CAT assay of promoter transcription activity, tumor cells. The class given is cell-based, human. As for the experimental part:
(§2) Using the above plasmid, or a plasmid pCAT-Control (manufactured by Promega) having the promoter of SV40 virus, and a plasmid pCAT-Basic (manufactured by Promega) containing no promoters, gene introduction was performed on the lung cancer cells QG-56, the neuroblastoma NGP, and the normal human fibroblasts MRC-5 that were being cultured in a DMEM (Sigma) supplemented with 10% bovine fetal serum. After 10 μg each of these plasmids and lipofectin (Life Technologies) were mixed, it was allowed to stand at room temperature for 30 minutes to form a complex. Then the complex, after removing the bovine fetal serum therefrom, was contacted with the cells. Eight hours later culture medium supplemented with bovine fetal serum was added, cultured for 40 hours, and then the gene-introduced cells were disrupted by ultrasonication. After centrifugation, the supernatants were used to examine their transcription activities with the known CAT assay method (Gorman, C M et al., Mol. Cell. Biol., 2:1044–1051, 1982) using [^14C]-chloramphenicol and acetyl CoA. At this time, in order to normalize the efficiency of gene introduction, 1 μg of the β-galactosidase gene (pCH110, manufactured by Amersham) was introduced at the same time, and the β-galactosidase activity (Heromel, P. et al., Cell, 39:653–662, 1984) was determined.

In series [3] the test system is normal human fibroblasts MRC-5. Nature of the series: CAT assay of promoter transcription activity, normal cells. It counts as cell-based. The note with it: FIG. 1. As for the experimental part:
as §2

In another series the test system is immortalized MRC-5 cells. Nature of the series: Luciferase assay of MK0.6 promoter activity under expression of wild-type p53. It counts as cell-based, human. Conditions: FIG. 5. The text has this:
In at least about 50% of human solid tumors, the loss of p53 gene functions is observed, and forced expression of-the wild-type p53 gene in tumors arrests tumor growth in some cases. Thus, using the MRC-5 cells that had been immortalized by destroying the functions of the p53 gene, DNA plasmid was introduced in which the luciferase gene, a reporter gene, was ligated downstream of the MK0.6 promoter, and the transcription activity of the MK0.6 promoter under the expression of the wild-type p53 gene was examined.
For this purpose, the MK0.6-CAT plasmid prepared in Example 1 was cleaved with HindIII, and the MK0.6 kb gene obtained was inserted into the HindIII site of pGL2-Basic (manufactured by Promega). […] After 48 hours-culture, the cells were disrupted using the Dual-Luciferase Reporter Assay System (manufactured by Promega), and the Firefly luciferase activity therein was determined using the reagents in the same kit. In order to normalize the efficiency of transfection, 1 μg of pRL-TK plasmid (manufactured by Promega) was included in each transfection, and the Renilla luciferase activity by the TK promoter was determined, based on which the Firefly luciferase activity was corrected.

Series [4] relates to immortalized MRC-5 cells (p53 functions inactivated). Nature of the series: In vitro sensitivity to GCV of promoter-TK gene-introduced cells (Cell Counting Kit-8 survival). The class given is cell-based, human. The note with it: HSV-TK gene powered by the promoter, GCV seven days, FIG. 2B. As for the experimental part:
(§3) (1) In order to examine cytotoxic effects by the transcription activity of the promoter obtained from the midkine gene, herpes simplex virus thymidine kinase (HSV-TK), a suicide gene, was ligated downstream of MK0.6 and MK2.3, and the plasmid was introduced in cells, and a prodrug gancyclovir (GCV) was added into the culture medium of the gene-introduced cells. The method of determining the cytotoxic effect by this system is as described in Moolten, FL. Cancer Gene Ther., 1:279–287, 1994.
(§4) First, the CMV promoter of pcDNA3 (manufactured by Invitrogen) was removed using NruI and HindIII sites, to which MK2.3 or Mk0.6 was inserted, and then using the EcoRV site, the HSV-TK gene excised from pMK (Brinster, R L et al., Cell, 27:223–231, 1981) with BglI and EcoRI was inserted. Each of the plasmids thus obtained (MK2.3-TK and MK0.6-TK) was introduced, as described above, using lipofectin into MRC-5 which are normal cells, or MRC-5 cells that had been immortalized by inactivating the functions of the p53 tumor suppressor gene. In order to utilize the expression of the Neo gene contained in pcDNA3 as drug resistant markers, the cells were cultured with 400 μg/ml of G418 (manufactured by Life Technologies) for ten days to establish the cells that expressed MK2.3-TK and MK0.6-TK, respectively. These cells were then plated at 500 cells/well of 96-well culture plates, and were cultured in the presence of various concentrations of GCV (manufactured by F. Hoffman-La Roche) for seven days. The survival rate of the cells was examined using the Cell Counting Kit-8 (manufactured by Dojin Kagaku). The survival of the cells at a GCV concentration of 0 μg/ml was set as 100%, and the survival for each experiment group is shown in terms of percentage in FIG. 2A and FIG. 2B.
A general note: Formazan colour is commonly taken as a measure of viable cells.

The test system of a further series is normal MRC-5 cells. The series is described as above. The class given is cell-based, human. The note with it: HSV-TK gene controlled by the promoter, GCV seven days, FIG. 2A. As for the experimental part: as §3, §4
A further series concerns normal fibroblasts HEF. Nature of the series: In vitro sensitivity to GCV of MK0.6-TK-introduced cells. The class given is cell-based, human. The note with it: MK0.6-TK-introduced HEF; GCV seven days; FIG. 3C. As for the experimental part:
as §1

The subject of another series is neuroblastoma NGP cells. The description is as above. Conditions: MK0.6-TK-introduced NGP; GCV seven days; FIG. 3B. The class given is cell-based, human. As for the experimental part:
as §1

Series [5] deals with lung cancer cells QG-56, PC-1, human breast cancer cells BT549. Nature of the series: Luciferase assay of midkine promoter activity in tumor cells. The class given is cell-based. The note with it: FIG. 6. The text has this:
Using the PCR method based on the information of the midkine genomic DNA, a DNA fragment that corresponds to a 335 bp region (MK335bp) from −285 to +50 and that has the base sequence set forth in SEQ ID NO: 4 was synthesized, and after confirming the sequences, it was inserted into pCR2.1 (manufactured by Invitrogen). After excising MK335bp from this DNA, it was ligated to pGL2-Basic (manufactured by Promega) to construct a plasmid for detecting promoter activity. Furthermore, using pGL2-Control (manufactured by Promega) containing the promoter of SV40 virus and pGL2-Basic containing a similarly constructed 609 bp midkine promoter (MK0.6), promoter activity was examined by the following method.
The lung cancer cells QG-56, PC-1, and human breast cancer cells BT549 that were cultured in DMEM (Sigma) supplemented with 10% bovine fetal serum, were transfected. After 10 μg each of these plasmids and lipofectin (manufactured by Life Technologies) were mixed, it was allowed to stand at room temperature for 30 minutes to form a complex. […] In order to normalize the efficiency of gene introduction, 1 μg of pRL-TK plasmid (manufactured by Promega) was included in each gene introduction group, and the Renilla luciferase activity by the TK promoter was determined, based on which the Firefly luciferase activity was corrected.

For the molecule `Nc1nc(O)c2ncn(COC(CO)CO)c2n1` [GCV, gancyclovir, reference compound], in the series with lung cancer cells QG-56 (MK0.6-TK-introduced tumor cells (QG-56, NGP)), the “concentration at which the cytotoxic effects by GCV was obtained” value was determined as 100 ng/mL. In addition, in series [1], the “maximum blood concentration of GCV” value is 1 µg/mL.

B1: MK0.6: 0.6 kb (609 bp, −559 to +50) of the human midkine genomic gene, base sequence SEQ ID NO: 1 (nucleic acid, listed as Homo sapiens)
DNA: GCTTCCCTGCCCACCCGCGGAAACCGCCCCAGGTGGCCGCGCCCCCTCCCCAGCAGCCAGCAGGGCGCCAGGGCTGAGCCGGCCGTGGAGGGGAGCGGGTCCCGGGGGTTATACAGGCGCCGGGCGTCCGCGGCAGGCAAGAGAAGCTGAGGCCTGAGAACGGCCCGGGCCTTGGCGTACGGCAGGGGACGACCTGGGATGGGGGCAGCGGGCGGCGGCGCAGGGAGTGGGCCGGGGCCGGTGTGCGCGGGCGGGACGGGGCCGGGGTCGGGAGACCACCGCTCGGAAGATGGGGCCGGGAGAGGCCGCCGTCGCAGCGCAGAGGGCACCGGCGGGGAGACGCGAGGACGCGGGGCCGGGAACACGGACGCCGGAGTAGAAGCGCGGGGGGGGCGGGCTGGAGCGGGGGCGGGGACGCCGGGGTCGGGGGCGGTGCGGGTTTGAGGGGAGGGGGCGGGGCGGGTCCTTCCCTGGGGGGGTGGGGAGAGGGGGCGGGGGCCCATGTGACCGGCTCAGACCGGTTCTGGAGACAAAAGGGGCCGCGGCGGCCGGAGCGGGACGGGCCCGGCGCGGGAGGGAGCGAAGCAGCGCGGGCAGCGAGCGAGTGAG
On to B1, for which, in series [2] (tumor cells versus normal cells), the “tumor-specificity of promoter activity” value is “specifically strong in tumors”. Further, the “transcriptional activity compared with other midkine promoter fragments” value is “more potent in the tumor cells than MK1.0 or MK2.3” in [2] (tumor cells, FIG. 1) and “rather decreased in the normal cells” in [3]. Further, the “transcriptional activity compared with promoter of SV40 virus” value in series [2] (tumor cells, FIG. 1) is recorded as “more potent than the promoter of SV40 virus in the tumor cells”. Moreover, the “MK0.6 promoter activity with increasing amounts of CMV-p53 plasmid” value with immortalized MRC-5 cells (CMV-p53 0–1 μg co-transfected) is reported as “decreased”. The “MK0.6 promoter activity with control CMV-p53R plasmid” value in the series on immortalized MRC-5 cells (CMV-p53R 0–1 μg co-transfected) is on record as “no changes”. Besides, the “sensitivity to GCV compared to that of the parent strain” value in [4] was 1000 fold; with normal MRC-5 cells, “identical with that of the parent strain”. Also, the “sensitivity to GCV compared to parent strain” value with normal fibroblasts HEF is “remained the same”; in the series with neuroblastoma NGP cells it was 1000 fold; with lung cancer cells QG-56 (MK0.6-TK-introduced QG-56, GCV seven days, FIG. 3A) it was 1000 fold.

B2: MK335bp: 335 bp midkine region from −285 to +50, base sequence SEQ ID NO: 4 (nucleic acid, listed as Homo sapiens)
DNA: ACCACCGCTCGGAAGATGGGGCCGGGAGAGGCCGCCGTCGCAGCGCAGAGGGCACCGGCGGGGAGACGCGAGGACGCGGGGCCGGGAACACGGACGCCGGAGTAGAAGCGCGGGGGGGGCGGGCTGGAGCGGGGGCGGGGACGCCGGGGTCGGGGGCGGTGCGGGTTTGAGGGGAGGGGGCGGGGCGGGTCCTTCCCTGGGGGGGTGGGGAGAGGGGGCGGGGGCCCATGTGACCGGCTCAGACCGGTTCTGGAGACAAAAGGGGCCGCGGCGGCCGGAGCGGGACGGGCCCGGCGCGGGAGGGAGCGAAGCAGCGCGGGCAGCGAGCGAGTGAG
For B2, the “promoter activity compared with MK0.6” value in [5] is reported as “almost the same activity as that of MK0.6”.
